Test results from article PMC10180351, “Modulating Substrate Specificity of Rhizobium sp. Histamine Dehydrogenase through Protein Engineering for Food Quality Applications” (Molecules, 2023).
Positions count from the first letter of the chain named. In names and notes the source's numbering stands.

T1: Rhizobium sp. Histamine Dehydrogenase (Rsp HDH) (Rhizobium sp. 4-9, UniProt Q60I59)
T1 construct: full length (693 aa native), synthetic E. coli-optimised gene in pET28a(+), C-terminal 6xHis tag kept; E. coli BL21 Gold (DE3); IMAC purified; homodimer with 6-S-Cys-FMN, [4Fe-4S], ADP
T1 sequence (Q60I59 1-693): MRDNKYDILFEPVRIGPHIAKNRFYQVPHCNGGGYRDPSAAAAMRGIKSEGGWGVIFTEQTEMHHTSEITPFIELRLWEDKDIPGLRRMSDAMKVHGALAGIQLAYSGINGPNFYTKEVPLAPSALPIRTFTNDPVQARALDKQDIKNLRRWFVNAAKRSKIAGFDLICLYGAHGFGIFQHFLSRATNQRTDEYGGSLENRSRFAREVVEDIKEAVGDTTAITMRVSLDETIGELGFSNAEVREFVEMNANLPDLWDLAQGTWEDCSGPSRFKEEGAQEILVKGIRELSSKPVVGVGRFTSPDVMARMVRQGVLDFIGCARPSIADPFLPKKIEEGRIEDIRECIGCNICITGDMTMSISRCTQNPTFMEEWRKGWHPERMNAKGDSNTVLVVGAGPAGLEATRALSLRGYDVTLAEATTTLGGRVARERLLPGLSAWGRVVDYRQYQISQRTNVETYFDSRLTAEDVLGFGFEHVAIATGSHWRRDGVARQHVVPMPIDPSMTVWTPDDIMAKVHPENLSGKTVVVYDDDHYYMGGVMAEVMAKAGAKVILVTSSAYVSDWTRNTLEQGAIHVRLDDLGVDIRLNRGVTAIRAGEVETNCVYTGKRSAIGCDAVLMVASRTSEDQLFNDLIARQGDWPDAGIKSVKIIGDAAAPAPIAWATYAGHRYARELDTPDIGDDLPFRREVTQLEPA

B1: Rhizobium sp. Histamine Dehydrogenase (Rsp HDH) (Rhizobium sp. 4-9) (protein)
chain: T1 sequence (Q60I59 1-693)
notes: full length (693 aa native), synthetic E. coli-optimised gene in pET28a(+), C-terminal 6xHis tag kept; E. coli BL21 Gold (DE3); IMAC purified; homodimer with 6-S-Cys-FMN, [4Fe-4S], ADP
B2: Rhizobium sp. Histamine Dehydrogenase (Rsp HDH) (Rhizobium sp. 4-9; F72T) (protein)
chain: T1 sequence (Q60I59 1-693) with F72T
notes: as for B1
B3: Rhizobium sp. Histamine Dehydrogenase (Rsp HDH) (Rhizobium sp. 4-9; N110V) (protein)
chain: T1 sequence (Q60I59 1-693) with N110V
notes: as for B1

Experiments:
[1] = biological target: T1, Rhizobium sp. Histamine Dehydrogenase (Rsp HDH); assay: WST-8 / 1-methoxy PMS colorimetric initial rate, […] nm, substrate inhibition fit; assay type: biochemical; conditions: substrate inhibition by histamine itself; 1-methoxy PMS electron carrier; glycine buffer pH 9.0, 37 °C
Description: (§1) Histamine Dehydrogenase (Rsp HDH)

purified protein [2] = substrate: N=C(N)NCCCCN; assay: purified protein; assay type: biochemical, Rhizobium sp. 4-9; conditions: 1-methoxy PMS electron carrier, glycine buffer pH 9.0, 37 °C
Description: as §1

purified protein [3] = substrate: NCCc1c[nH]cn1; assay: purified protein; assay type: biochemical, Rhizobium sp. 4-9; conditions: 1-methoxy PMS electron carrier, glycine buffer pH 9.0, 37 °C
Description: as §1

| Molecule | Observed Ki [1] [µM] | Km (purified protein [2]) [µM] | Km (purified protein [3]) [µM] |
| --- | --- | --- | --- |
| NCCc1c[nH]cn1 [histamine] | 2059.0 | – | – |
| B1 | – | 130.1 | 38.24 |
| B2 | – | 112.9 | 194.6 |
| B3 | – | 170.1 | 159.5 |
